Here are results for two molecules from article PMC12246617, “Cryo-EM structures reveal the PP2A–B55α and Eya3 interaction that can be disrupted by a peptide inhibitor” (The Journal of Biological Chemistry, 2025).

Positions count from the first letter of the chain named. Names and notes keep the numbering of the source.

One data set has as its system B55α (His-B55). As to the kind of experiment: Microscale thermophoresis (MST) binding of Eya3 to labeled His-B55. Also noted: species or system human. The source says:
We expressed and purified Eya3 protein from Escherichia coli and the His-B55α subunit from insect cells (Fig. S1). In the remainder of the article, we will use B55 to represent B55α for simplicity and PP2A–B55 to represent the holoenzyme containing the A, B55, and C subunits. We labeled His-B55 with the RED–Tris–NTA dye and carried out microscale thermophoresis (MST) experiments with increasing concentrations of Eya3.
The modeled Eya3 peptide (residues 65–86) interacts mostly with residues on blades 3 and 4 of the β-propeller on the B55 surface (including residues on the β2D and β3A loop, β3B and β3C loop, and β3D and β4A loop) and with residues on the α1 and α2 helix positioned above blade 5, as well as the α2 and β6A loop (Fig. 1F). In particular, residue H79^Eya3 forms pi–pi or pi–cation stacking with H179^B55 and a hydrogen bond with D197^B55 (Fig. 2A). […] Furthermore, Y77^Eya3 forms a hydrogen bond with the main chain carbonyl of L225^B55, and K75^Eya3 forms another hydrogen bond with Y337^B55 (Fig. 2, B and C). […] We expressed and purified Eya3 K75A, Y77A, and H79A mutant proteins from E. coli and carried out MST experiments with fluorescently labeled His-B55. […] While we were working on the structure of PP2A–B55 + Eya3, Padi et al. ([84]) published the cryo-EM structure of PP2A–B55 in complex with an Eya3 peptide (residues 62–108) on bioRxiv.
(§1) FLAG-hB55, FLAG-hEya3, GFP, and GFP-B55i were cloned into the pCAG vector; (GST)-mEya3 was cloned into pGEX-6p1; His-hB56γ1 was cloned into pGEX-4T1; and His-hB55 was cloned in pFASTbac, all using the NEBuilder HiFi DNA Assembly Cloning Kit (New England Biolabs). h and m represent human and mouse proteins, respectively.
GST-mEya3 and mutants were expressed in BL21 cells. Cells were lysed in lysis buffer containing 50 mM Tris (pH 7.5), 250 mM NaCl, 5% glycerol, 1 mM DTT, and protease inhibitor cocktail (PIC; Thermo Scientific). Lysis was done in ice with sonication using 4 × 45 s pulses with 2-min off periods. NaCl was brought up to 0.5 M using 5 M NaCl, and the lysate was centrifuged for 40 min at 18,000g. Supernatant was gravity-flown over glutathione resin twice. Resin was washed with 100 ml of lysis buffer. GST was cleaved with PreScission protease and eluted into lysis buffer. Eluates were pooled and concentrated with Amicon Ultra Centrifugal filters. Concentrated protein was separated on a pre-equilibrated S200 column for size-exclusion chromatography. Peaks were combined, concentrated again, aliquoted, and stored at −80 °C.
His-B55 was expressed in Hi5 cells. […]
His-B55 or His-B56γ1 labeled with […] (NanoTemper) was added to serial dilutions of mEya3 in PBS with 0.05% Tween-20. The samples were then read with a Monolith NT.115^Pico (NanoTemper) according to the manufacturer’s instructions.
A general note: MST reads how a fluorescent partner responds to local heating, with and without ligand.

A further data set deals with B55. Particulars: Eya3 mutant; cited from earlier work. An excerpt:
The modeled Eya3 peptide (residues 65–86) interacts mostly with residues on blades 3 and 4 of the β-propeller on the B55 surface (including residues on the β2D and β3A loop, β3B and β3C loop, and β3D and β4A loop) and with residues on the α1 and α2 helix positioned above blade 5, as well as the α2 and β6A loop (Fig. 1F). In particular, residue H79^Eya3 forms pi–pi or pi–cation stacking with H179^B55 and a hydrogen bond with D197^B55 (Fig. 2A). […] Furthermore, Y77^Eya3 forms a hydrogen bon ...

In another data set the test system is Myc. Particulars: PP2A–B55α binding mutant; cited from earlier work. An excerpt:
(§2) We have shown that Eya proteins directly interact with the PP2A–B55α but not B56 subunit. […] Moreover, all Eya family members can interact with PP2A–B55α through analogous disordered regions in their NTDs ([27], [46]).

Data set [1] has as its system triple-negative breast cancer (TNBC) tumor. Particulars: PP2A–B55α binding mutant; cited from earlier work.
Description: as §2

Data set [2] has as its system Eya3 and B55 complex (FLAG-hEya3 + His-B55). Nature of the data set: Mass photometry of Eya3 and B55 complex formation and its disruption by B55i. Type of data set: binding, human. The conditions noted are these: no B55i, 20 mM Tris (pH 8), 250 mM NaCl, 1 mM MnCl2, 0.5 mM TCEP, molar ratio 1.5:1, diluted to 100 nM.
Description: To evaluate the effect of B55i in cells, we expressed the B55i peptide as a GFP fusion on a plasmid in 66cl4 TNBC cells.
B, MST binding affinity curve showing the interaction between mEya3 and His-B55α. C, B55i disruption of the mEya3 and His-B55α interaction on MST. […] The amount of GFP and GFP-B55i expressed was also quantified using eGFP absorbance at 488 nm and normalized to total protein in the cell lysate. The datasets in all panels represent three independent biological replicates. Error bars represent the standard deviation. Statistical data analysis was done using Fmax tests followed by two-tailed, homoscedastic t tests. ∗p < 0.05, ∗∗p < 0.01, and ∗∗∗∗p < 0.0001. MST, microscale thermophoresis; TNBC, triple-negative breast cancer. […] It is uncertain whether these count as molecular weight results or as excluded spectrum labels.
as §1
hEya3 and PP2A–B55 were combined in 20 mM Tris (pH 8), 250 mM NaCl, 1 mM MnCl2, and 0.5 mM TCEP at a molar ratio of 1.5:1. […] Immediately prior to reading, the solution was diluted to 100 nM. Samples were analyzed on the Refeyn TwoMP (Refeyn).

The test system of the next data set is PP2A–B55. The conditions noted are these: malachite green assay, peptide substrate KRpTIRR; 50 mM Tris [pH 7.5], 50 mM NaCl, 5 mM MgCl2, 0.1 mM EDTA; cited from earlier work. The source says: To identify the factor that led to this discrepancy, we first repeated our as ...
Another data set concerns Myc pT58. Particulars: cited from earlier work. An excerpt:
The weak inhibition of the PP2A–B55 activity by its B55 binders may have different consequences i ...

B1: H79A: Eya3 H79A mutant protein from E. coli (protein, UniProt Q99504 1-573, looked up, variant H79A)
Protein phosphatase EYA3: MEEEQDLPEQPVKKAKMQESGEQTISQVSNPDVSDQKPETSSLASNLPMSEEIMTCTDYIPRSSNDYTSQMYSAKPYAAILSVPVSETAYPGQTQYQTLQQTQPYAVYPQATQTYGLPPFGALWPGMKPESGLIQTPSPSQHSVLTCTTGLTTSQPSPAHYSYPIQASSTNASLISTSSTIANIPAAAVASISNQDYPTYTILGQNQYQACYPSSSFGVTGQTNSDAESTTLAATTYQSEKPSVMAPAPAAQRLSSGDPSTSPSLSQTTPSKDTDDQSRKNMTSKNRGKRKADATSSQDSELERVFLWDLDETIIIFHSLLTGSYAQKYGKDPTVVIGSGLTMEEMIFEVADTHLFFNDLEECDQVHVEDVASDDNGQDLSNYSFSTDGFSGSGGSGSHGSSVGVQGGVDWMRKLAFRYRKVREIYDKHKSNVGGLLSPQRKEALQRLRAEIEVLTDSWLGTALKSLLLIQSRKNCVNVLITTTQLVPALAKVLLYGLGEIFPIENIYSATKIGKESCFERIVSRFGKKVTYVVIGDGRDEEIAAKQHNMPFWRITNHGDLVSLHQALELDFL
Turning to B1, the “binding between Eya3 and B55 (mutants)” value in the data set on B55α (His-B55) (fluorescently labeled His-B55, vs Eya3 WT) was “significantly reduce the binding between Eya3 and B55”. The “interaction between Eya3 and B55” value in the data set with B55 was “dramatically reduce the interaction between Eya3 and B55”. Besides, in the data set with Myc, the Myc stabilization result was “impeded Myc stabilization”. The TNBC tumor metastasis result in data set [1] is given as “impeded”.

B2: Eya3: Eya3 protein purified from Escherichia coli (mEya3) or HEK293 FreeStyle cells (FLAG-hEya3) (protein)
chain: B1 Protein phosphatase EYA3 with A79H
modifications: left off: FLAG, end not stated, kept
For B2, on B55α (His-B55) (His-B55 labeled with Red–Tris–NTA dye, serial dilutions of Eya3 (mEya3, E. coli), PBS with 0.05% Tween-20, Monolith NT.115 Pico, three independent biological replicates (stated for Fig. 1A)), the Kd was found to be 1040 nM. For the same molecule, the “Eya3 and B55 complex formation” value in data set [2] was “Eya3 and B55 form a complex”. In the data set with PP2A–B55, the “phosphatase activity of PP2A–B55” value was “increases the phosphatase activity of PP2A–B55”. Moreover, in the data set with Myc pT58, the “dephosphorylation of pT58 on Myc” value was “clearly increases the dephosphorylation of pT58 on Myc”.

As usually defined, the Kd is the equilibrium constant for the complex coming apart.
